Experimental data published in patent US20160297863A1 (WAKE FOREST UNIVERSITY HEALTH SCIENCES, published 2016).

Molecular target: EphA2 receptor on GBM cells (human, UniProt P29317 24-976)
Test: cell-based or functional assay

EphA2 receptor on GBM cells, sequence (P29317 24-976): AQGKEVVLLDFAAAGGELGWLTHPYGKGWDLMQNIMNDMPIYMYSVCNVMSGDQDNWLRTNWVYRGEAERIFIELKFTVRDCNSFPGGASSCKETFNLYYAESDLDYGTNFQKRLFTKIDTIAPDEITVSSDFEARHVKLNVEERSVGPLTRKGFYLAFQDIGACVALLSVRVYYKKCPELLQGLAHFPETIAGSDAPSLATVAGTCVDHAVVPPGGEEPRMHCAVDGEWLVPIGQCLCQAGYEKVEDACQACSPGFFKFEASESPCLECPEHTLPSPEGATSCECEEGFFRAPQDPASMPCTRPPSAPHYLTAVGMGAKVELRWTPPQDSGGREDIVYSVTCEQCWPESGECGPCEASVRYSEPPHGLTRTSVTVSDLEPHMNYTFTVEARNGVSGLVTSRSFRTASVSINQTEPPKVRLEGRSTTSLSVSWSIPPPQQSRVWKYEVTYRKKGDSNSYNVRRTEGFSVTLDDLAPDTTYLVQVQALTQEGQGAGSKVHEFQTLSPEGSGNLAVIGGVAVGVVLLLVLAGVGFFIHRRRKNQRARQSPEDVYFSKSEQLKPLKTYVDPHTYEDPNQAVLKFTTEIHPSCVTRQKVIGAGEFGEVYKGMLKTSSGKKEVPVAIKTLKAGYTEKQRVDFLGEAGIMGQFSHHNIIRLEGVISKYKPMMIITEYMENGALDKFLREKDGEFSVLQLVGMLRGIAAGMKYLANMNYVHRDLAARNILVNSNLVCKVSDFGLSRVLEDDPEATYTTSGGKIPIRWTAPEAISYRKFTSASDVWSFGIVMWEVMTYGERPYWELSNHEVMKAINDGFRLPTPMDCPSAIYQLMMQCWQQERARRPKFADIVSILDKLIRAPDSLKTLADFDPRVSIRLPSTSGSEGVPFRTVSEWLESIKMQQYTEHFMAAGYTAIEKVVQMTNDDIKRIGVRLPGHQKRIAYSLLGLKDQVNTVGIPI

B1: eA5-PE-C (eA5-Fc chemically conjugated to PE38QQR, glycosylated form) (other)
chain: QDPGSKAVADRYAVYWNSSNPRFQRGDYHIDVCINDYLDVFCPHYEDSVPEDKTERYVLYMVNFDGYSACDHTSKGFKRWECNRPHSPNGPLKFSEKFQLFTPFSLGFEFRPGREYFYISSAIPDNGRRSCLKLKVFVRPTNSCMKTIGVHDRVFDVNDKVENSLEPADDT
IC50, GBM tumor cell killing (cell viability assay): ~10 pM
